{
  "source": "patent US10729634B2",
  "about": "“Sex hormone-binding globulin for use as a medicament” (FUNDACIÓ HOSPITAL UNIVERSITARI VALL D'HEBRON—INSTITUT DE …, priority 2013, dated 2020)",
  "key": {"[1]": {"tested_on": "human SHBG transgenic mice (shbg)", "assay": "High lipid diet in human SHBG transgenic mice vs wild-type", "assay_type": "in vivo", "details": "shbg vs WT mice", "protocol": "Wild-type (WT) mice and shbg-mice as in Example 5 were fed with a high lipid diet (50% lipids, from which 46% pig butter and 4% soybean fat) for 8 weeks.\nWeight increase along weeks was followed and plotted in FIG. 19 (A), wherein the weight in grams of mice is plotted per week after consumption of the fat diet.\nOnce mice were sacrificed, visceral adipose tissue (VAT in grams) was analyzed in both animal types. […] VAT was determined as follows: all visceral fat was removed from the animals and it was weighed in a precision balance."}, "[2]": {"tested_on": "shbg-db/db transgenic mice", "assay": "Obese diabetic db/db mice expressing human SHBG (shbg-db/db) compared with db/db", "assay_type": "in vivo", "from_the_text": "To shed light to this issue, the inventors developed a unique mouse model that expresses the human SHBG gene and develops obesity, by crossing the human SHBG transgenic mice with the db/db mice.\nThe human SHBG transgenic mice is the one disclosed by Jänne et al, “Human Sex-Hormone-Binding Globulin Gen Expression in Transgenic Mice”, Molecular Endocrinology—1998, Vol. No. 12 (1), pp: 123-136.\nBriefly, these mice were obtained by microinjecting into the pronuclei of a one-cell mouse embryos, a 4.3 kb portion of a human shbg that comprises the 8 exons of the SHBG plus 0.9 kb 5′ of the translation initiation codon in exon 1 and 0.5 kb 3′ from the polyadenylation sequence in exon 8. The one-cell embryos were obtained superovulating CBA×C57BL6 hybrid females with pregnant mare serum and hCG (Sigma Chemical Co. Mississauga, Canada) and mating them with CBA×C57BL6 males. Female CD-1 mice were used to produce pseudopregnant recipients by mating with vasectomized CD-1 males. Injected embryos were implanted into the pseudopregnant recipient mice using a standard protocol. This human transgenic mice over expresses the human shbg gene in vivo. According to Northern blot analysis, the human shbg transcripts are most abundant in liver and kidney. At the cellular level, the human shbg transgenes are expressed in clusters of hepatocytes located mainly within the periportal region of hepatic lobules and in the epithelial cells lining the proximal convoluted tubules of the kidney.\nThe db/db mice corresponds to the JAX™ Mice Strain: Diabetic Mice db/db (from Charles River; www.criver.com/en-US/Pages/home.aspx). These mice are characterized by having a point mutation in the leptin receptor. In homozygosis the lack of leptin signaling in the hypothalamus will lead to persistent hyperphagia, obesity, type 2 diabetes, dyslipidaemia and fatty liver. In this mice, diabetes (db), which occurred in an inbred strain of mouse, is inherited as a unit autosomal recessive and is characterized by a metabolic disturbance resembling diabetes mellitus in man. Abnormal deposition of fat at 3 to 4 weeks of age is followed shortly by hyperglycemia, polyuria, and glycosuria.\nFor performing the assays, mice were maintained under standard conditions with food (Global Diet 2018, Harlan Interfauna Iberica, Barcelona, Spain) and water provided ad libitum and a 12 h light/dark cycle. Experimental procedures were approved by the Institutional Animal Use Subcommittees of Hospital Vall d'Hebron Research Institute and the Universitat Autònoma Barcelona.\nThe mice for experiments in next illustrated assays were of the following four genotypes: • db/+, which means lean mice heterozygous at point mutation in the leptin receptor. • db/db, which means that the mice were homozygous for the point mutation in the leptin receptor and behave a phenotype of persistent hyperphagia, obesity, type 2 diabetes, dyslipidaemia and fatty liver, • shbg-db/+ lean mice heterozygous at point mutation in the leptin receptor and expressing the shbggene • shbg-db/db, which means that the they over-expressed shbg gene in the manner disclosed above and at the same time they had the phenotype of the homozygous db/db mice in relation to hyperphagia, obesity, type 2 diabetes, dyslipidaemia and fatty liver.\nHistology and Immunohistochemistry: For morphological studies, 3 animals of each genotype (db/+, db/db, shbg4-db/+ and shbg4-db/db) were used. Livers and adipose tissue were fixed in 4% paraformaldehyde for 24 h and embedded in paraffin. Serial 5-μm thick sections were used for histological examination and stained with hematoxylin-eosin (H&E).\nFor immunohistochemistry studies, the paraffin sections were de-waxed and incubated at high power in a microwave oven for 10 min in citrate buffer, pH 6.6. The sections were then cooled at room temperature for 20 min and treated with a 0.03% hydrogen peroxide solution for 7 min, prior to incubation (overnight at 4° C.) with rabbit antibodies against F4/80. […]"}, "[3]": {"details": "adipose tissue, shbg-db/db vs db/db mice"}, "[4]": {"details": "shbg-db/db vs db/db mice, 4 to 12 weeks of age"}, "[5]": {"details": "shbg-db/db vs db/db mice, relative to 18S mRNA"}, "[6]": {"details": "shbg-db/db vs db/db mice, sacrificed at 6 weeks"}, "[7]": {"details": "shbg-db/db vs db/db mice, western blot"}},
  "data": [
    {"molecule": "SHBG: native human protein purified from healthy human serums (included SEQ ID NO: 1); in mice and HepG2 expressed from human shbg transgene/vector (protein, listed as Homo sapiens) MESRGPLATSRLLLLLLLLLLRHTRQGWALRPVLPTQSAHDPPAVHLSNGPGQEPIAVMTFDLTKITKTSSSFEVRTWDPEGVIFYGDTNPKDDWFMLGLRDGRPEIQLHNHWAQLTVGAGPRLDDGRWHQVEVKMEGDSVLLEVDGEEVLRLRQVSGPLTSKRHPIMRIALGGLLFPASNLRLPLVPALDGCLRRDSWLDKQAEISASAPTSLRSCDVESNPGIFLPPGTQAEFNLRDIPQPHAEPWAFSLDLGLKQAAGSGHLLALGTPENPSWLSLHLQDQKVVLSSGSGPGLDLPLVLGLPLQLKLSMSRVVLSQGSKMKALALPPLGLAPLLNLWAKPQGRLFLGALPGEDSSTSFCLNGLWAQGQRLDVDQALNRSHEIWTHSCPQSPGNGTDASH", "values": [
      {"measurement": "visceral adipose tissue (VAT)", "setting": "[1]; high lipid diet (50% lipids) for 8 weeks", "value": "wild-type mice had a greater visceral adipose tissue than transgenic animals"},
      {"measurement": "body weight along weeks", "setting": "[1]; high lipid diet (50% lipids)", "value": "always a lower weight than wild-type mice"},
      {"measurement": "obesity", "setting": "[1]; high lipid diet (50% lipids)", "value": "Protects Against Obesity"},
      {"measurement": "Adiponectin mRNA levels", "setting": "[2]; [3]", "value": "increased significantly"},
      {"measurement": "IL6 mRNA levels", "setting": "[2]; [3]", "value": "reduced in shbg-db/db mice when compared with db/db mice but it was not statistically significant"},
      {"measurement": "IL-1β mRNA levels", "setting": "[2]; [3]", "value": "significantly reduced"},
      {"measurement": "TNF-α mRNA levels", "setting": "[2]; [3]", "value": "significantly reduced"},
      {"measurement": "Triglyceride amounts in liver", "setting": "[2]; genotype shbg-db/+ (lean mice expressing human SHBG), db/+ control 74.99 ± 4.17", "value": "88.88 ± 12.84", "unit": "Nmol TGs/tissue g"},
      {"measurement": "Triglyceride amounts in liver", "setting": "[2]; genotype shbg-db/db (obese mice expressing human SHBG), db/db control 421.92 ± 58.6", "value": "314.64 ± 41.37", "unit": "Nmol TGs/tissue g"},
      {"measurement": "macrophage infiltration (F4/80 immunohistochemistry)", "setting": "[2]; liver and adipose tissue, shbg-db/db vs db/db mice", "value": "less macrophage infiltration in both liver and adipose tissue"},
      {"measurement": "hepatic lipogenesis", "setting": "[2]; shbg-db/db vs db/db mice", "value": "Reducing Hepatic Lipogenesis"},
      {"measurement": "inflammation", "setting": "[2]; shbg-db/db vs db/db mice", "value": "Lowers Inflammation"},
      {"measurement": "blood glucose levels", "setting": "[2]; [4]", "value": "not Blood Glucose Levels"},
      {"measurement": "weight gain (body weight)", "setting": "[2]; [4]", "value": "Reduces Weight Gain"},
      {"measurement": "hepatic steatosis", "setting": "[2]; shbg-db/db vs db/db mice, liver histology", "value": "Reduces"},
      {"measurement": "liver ACC mRNA levels", "setting": "[2]; [5]", "value": "significantly lower"},
      {"measurement": "liver FAS mRNA levels", "setting": "[2]; [5]", "value": "significantly lower"},
      {"measurement": "adipocyte size", "setting": "[2]; [6]", "value": "Reduces"},
      {"measurement": "adipose tissue weight (VAT)", "setting": "[2]; [6]", "value": "Reduces Adipose Tissue Weight"},
      {"measurement": "liver weight", "setting": "[2]; [6]", "value": "Reduces Liver Weight"},
      {"measurement": "liver ACC protein levels", "setting": "[2]; [7]", "value": "reduced ACC protein levels"},
      {"measurement": "liver FAS protein levels", "setting": "[2]; [7]", "value": "significantly lower FAS protein levels"}
    ]}
  ]
}
